Columns and labels:
HeLa Kyoto [1] = assay: solubility in G1/S (NP-40 vs SDS abundance) (log2 ratio); higher = more soluble; conditions: cell cycle stage: G1/S
HeLa Kyoto [2] = assay: solubility change mitosis vs G1/S (difference of NP-40 vs SDS log2 ratios) (log2 ratio difference); higher = more soluble in mitosis
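Wherever solubility change mitosis vs G1/S (difference of NP-40 vs SDS log2 ratios) is given: synchronized HeLa Kyoto cells (double thymidine block for G1/S, nocodazole release for mitosis), protein amounts in NP-40 versus SDS lysates quantified by mass spectrometry, three biological replicates.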
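Wherever solubility in G1/S (NP-40 vs SDS abundance) is given: HeLa Kyoto cells arrested at G1/S by double thymidine block, proteins quantified by TMT10plex mass spectrometry in mild NP-40 versus SDS extracts, three biological replicates.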

Sequence	solubility in G1/S (log2) (HeLa Kyoto [1])	solubility change mitosis (log2) (HeLa Kyoto [2])
MNFEGLDPGLAEYAPAMHSALDPVLDAHLNPSLLQNVELDPEGVALEALPVQESVHIMEGVYSELHSVVAEVGVPVSVSHFDLHEEMLWVGSHGGHATSFFGPALERYSSFQVNGSDDIRQIQSLENGILFLTKNNLKYMARGGLIIFDYLLDENEDMHSLLLTDSSTLLVGGLQNHIIEIDLNTVQETQKYAVETPGVTIMRQTNRFFFCGHTSGKVSLRDLRTFKVEHEFDAFSGSLSDFDVHGNLLAACGFSSRLTGLACDRFLKVYDLRMMRAITPLQVHVDPAFLRFIPTYTSRLAIISQSGQCQFCEPTGLANPADIFHVNPVGPLLMTFDVSASKQALAFGDSEGCVHLWTDSPEPSFNPYSRETEFALPCLVDSLPPLDWSQDLLPLSLIPVPLTTDTLLSDWPAANSAPAPRRAPPVDAEILRTMKKVGFIGYAPNPRTRLRNQIPYRLKESDSEFDSFSQVTESPVGREEEPHLHMVSKKYRKVTIKYSKLGLEDFDFKHYNKTLFAGLEPHIPNAYCNCMIQVLYFLEPVRCLIQNHLCQKEFCLACELGFLFHMLDLSRGDPCQGNNFLRAFRTIPEASALGLILADSDEASGKGNLARLIQRWNRFILTQLHQDMQELEIPQAYRGAGGSSFCSSGDSVIGQLFSCEMENCSLCRCGSETVRASSTLLFTLSYPDGSKSDKTGKNYDFAQVLKRSICLDQNTQAWCDTCEKYQPTIQTRNIRHLPDILVINCEVNSSKEADFWRMQAEVAFKMAVKKHGGEISKNKEFALADWKELGSPEGVLVCPSIEELKNVWLPFSIRMKMTKNKGLDVCNWTDGDEMQWGPARAEEEHGVYVYDLMATVVHILDSRTGGSLVAHIKVGETYHQRKEGVTHQQWYLFNDFLIEPIDKHEAVQFDMNWKVPAILYYVKRNLNSRYNLNIKNPIEASVLLAEASLARKQRKTHTTFIPLMLNEMPQIGDLVGLDAEFVTLNEEEAELRSDGTKSTIKPSQMSVARITCVRGQGPNEGIPFIDDYISTQEQVVDYLTQYSGIKPGDLDAKISSKHLTTLKSTYLKLRFLIDIGVKFVGHGLQKDFRVINLMVPKDQVLDTVYLFHMPRKRMISLRFLAWYFLDLKIQGETHDSIEDARTALQLYRKYLELSKNGTEPESFHKVLKGLYEKGRKMDWKVPEPEGQTSPKNAAVFSSVLAL [PAN2]	-0.18	0.206
MNGPADGEVDYKKKYRNLKRKLKFLIYEHECFQEELRKAQRKLLKVSRDKSFLLDRLLQYENVDEDSSDSDATASSDNSETEGTPKLSDTPAPKRKRSPPLGGAPSPSSLSLPPSTGFPLQASGVPSPYLSSLASSRYPPFPSDYLALQLPEPSPLRPKREKRPRLPRKLKMAVGPPDCPVGGPLTFPGRGSGAGVGTTLTPLPPPKMPPPTILSTVPRQMFSDAGSGDDALDGDDDLVIDIPE [INO80E]	0.135	0.288
MNGTRNWCTLVDVHPEDQAAGSVDILRLTLQGELTGDELEHIAQKAGRKTYAMVSSHSAGHSLASELVESHDGHEEIIKVYLKGRSGDKMIHEKNINQLKSEVQYIQEARNCLQKLREDISSKLDRNLGDSLHRQEIQVVLEKPNGFSQSPTALYSSPPEVDTCINEDVESLRKTVQDLLAKLQEAKRQHQSDCVAFEVTLSRYQREAEQSNVALQREEDRVEQKEAEVGELQRRLLGMETEHQALLAKVREGEVALEELRSNNADCQAEREKAATLEKEVAGLREKIHHLDDMLKSQQRKVRQMIEQLQNSKAVIQSKDATIQELKEKIAYLEAENLEMHDRMEHLIEKQISHGNFSTQARAKTENPGSIRISKPPSPKPMPVIRVVET [TUFT1]	0.415	0.112
MNQFGPSALINLSNFSSIKPEPASTPPQGSMANSTAVVKIPGTPGAGGRLSPENNQVLTKKKLQDLVREVDPNEQLDEDVEEMLLQIADDFIESVVTAACQLARHRKSSTLEVKDVQLHLERQWNMWIPGFGSEEIRPYKKACTTEAHKQRMALIRKTTKK [TAF12]	-0.0469	0.151
MNRVLCAPAAGAVRALRLIGWASRSLHPLPGSRDRAHPAAEEEDDPDRPIEFSSSKANPHRWSVGHTMGKGHQRPWWKVLPLSCFLVALIIWCYLREESEADQWLRQVWGEVPEPSDRSEEPETPAAYRART [CCSMST1]	-0.299	0.566
MPDQALQQMLDRSCWVCFATDEDDRTAEWVRPCRCRGSTKWVHQACLQRWVDEKQRGNSTARVACPQCNAEYLIVFPKLGPVVYVLDLADRLISKACPFAAAGIMVGSIYWTAVTYGAVTVMQVVGHKEGLDVMERADPLFLLIGLPTIPVMLILGKMIRWEDYVLRLWRKYSNKLQILNSIFPGIGCPVPRIPAEANPLADHVSATRILCGALVFPTIATIVGKLMFSSVNSNLQRTILGGIAFVAIKGAFKVYFKQQQYLRQAHRKILNYPEQEEA [MARCH5]	-0.272	0.0312
MPGAGARAEEGGGGGEGAAQGAAAEPGAGPAREPARLCGYLQKLSGKGPLRGYRSRWFVFDARRCYLYYFKSPQDALPLGHLDIADACFSYQGPDEAAEPGTEPPAHFQVHSAGAVTVLKAPNRQLMTYWLQELQQKRWEYCNSLDMVKWDSRTSPTPGDFPKGLVARDNTDLIYPHPNASAEKARNVLAVETVPGELVGEQAANQPAPGHPNSINFYSLKQWGNELKNSMSSFRPGRGHNDSRRTVFYTNEEWELLDPTPKDLEESIVQEEKKKLTPEGNKGVTGSGFPFDFGRNPYKGKRPLKDIIGSYKNRHSSGDPSSEGTSGSGSVSIRKPASEMQLQVQSQQEELEQLKKDLSSQKELVRLLQQTVRSSQYDKYFTSSRLCEGVPKDTLELLHQKDDQILGLTSQLERFSLEKESLQQEVRTLKSKVGELNEQLGMLMETIQAKDEVIIKLSEGEGNGPPPTVAPSSPSVVPVARDQLELDRLKDNLQGYKTQNKFLNKEILELSALRRNAERRERDLMAKYSSLEAKLCQIESKYLILLQEMKTPVCSEDQGPTREVIAQLLEDALQVESQEQPEQAFVKPHLVSEYDIYGFRTVPEDDEEEKLVAKVRALDLKTLYLTENQEVSTGVKWENYFASTVNREMMCSPELKNLIRAGIPHEHRSKVWKWCVDRHTRKFKDNTEPGHFQTLLQKALEKQNPASKQIELDLLRTLPNNKHYSCPTSEGIQKLRNVLLAFSWRNPDIGYCQGLNRLVAVALLYLEQEDAFWCLVTIVEVFMPRDYYTKTLLGSQVDQRVFRDLMSEKLPRLHGHFEQYKVDYTLITFNWFLVVFVDSVVSDILFKIWDSFLYEGPKVIFRFALALFKYKEEEILKLQDSMSIFKYLRYFTRTILDARKLISISFGDLNPFPLRQIRNRRAYHLEKVRLELTELEAIREDFLRERDTSPDKGELVSDEEEDT [TBC1D2B]	-0.186	-0.0456
